Measured values published in patent US20260256915A1 (published 2026).

T1: PRAME peptide on HLA-A*02:01 (human)
T1 peptide: SLLQHLIGL

B1: nwTCR-3273 (TCR, V domains shown)
Valpha: SQELEQSPQSLIVQEGKNLTINCTSSKTLYGLYWYKQKYGEGLIFLMMLQKGGEEKSHEKITAKLDEKKQQSSLHITASQPSHAGIYLCGAVPINDYKLSFGAGTTVTVRA
Vbeta: EAQVTQNPRYLITVTGKKLTVTCSQNMNHEYMSWYRQDPGLGLRQIYYSMNVEVTDKGDVPEGYKVSRKEKRNFPLILESPSPNQTSLYFCASSIDSGSSYNEQFFGPGTRLTVL
B2: nwTCR-3173 (TCR, V domains shown)
Valpha: SQQGEEDPQALSIQEGENATMNCSYKTSINNLQWYRQNSGRGLVHLILIRSNEREKHSGRLRVTLDTSKKSSSLLITASRAADTASYFCATYANDYKLSFGAGTTVTVRA
Vbeta: EAQVTQNPRYLITVTGKKLTVTCSQNMNHEYMSWYRQDPGLGLRQIYYSMNVEVTDKGDVPEGYKVSRKEKRNFPLILESPSPNQTSLYFCASSAGTGGFVGYTFGSGTRLTVV
B3: nwTCR-2970 (TCR, V domains shown)
Valpha: QQPVQSPQAVILREGEDAVINCSSSKALYSVHWYRQKHGEAPVFLMILLKGGEQKGHDKISASFNEKKQQSSLYLTASQLSYSGTYFCGTEFRNDYKLSFGAGTTVTVRA
Vbeta: EAQVTQNPRYLITVTGKKLTVTCSQNMNHEYMSWYRQDPGLGLRQIYYSMNVEVTDKGDVPEGYKVSRKEKRNFPLILESPSPNQTSLYFCASSPGTGGYGYTFGSGTRLTVV
B4: nwTCR-3272 (TCR, V domains shown)
Valpha: QKEVEQNSGPLSVPEGAIASLNCTYSDRGSQSFFWYRQYSGKSPELIMSIYSNGDKEDGRFTAQLNKASQYVSLLIRDSQPSDSATYLCAVPSGNMLTFGGGTRLMVKP
Vbeta: DVKVTQSSRYLVKRTGEKVFLECVQDMDHENMFWYRQDPGLGLRLIYFSYDVKMKEKGDIPEGYSVSREKKERFSLILESASTNQTSMYLCASSSATSGSGEQYFGPGTRLTVT
B5: nwTCR-3095 (TCR, V domains shown)
Valpha: DQQVKQNSPSLSVQEGRISILNCDYTNSMFDYFLWYKKYPAEGPTFLISISSIKDKNEDGRFTVFLNKSAKHLSLHIVPSQPGDSAVYFCAAFASDSNYQLIWGAGTKLIIKP
Vbeta: DTAVSQTPKYLVTQMGNDKSIKCEQNLGHDTMYWYKQDSKKFLKIMFSYNNKELIINETVPNRFSPKSPDKAHLNLHINSLELGDSAVYFCASSPWTSGGNGELFFGEGSRLTVL
B6: nwTCR-2793 (TCR, V domains shown)
Valpha: QKEVEQNSGPLSVPEGAIASLNCTYSDRVSQSFFWYRQYSGKSPELIMSIYSNGDKEDGRFTAQLNKASQYVSLLIRDSQPSDSATYLCAVVSSNDYKLSFGAGTTVTVRA
Vbeta: EAQVTQNPRYLITVTGKKLTVTCSQNMNHEYMSWYRQDPGLGLRQIYYSMNVEVTDKGDVPEGYKVSRKEKRNFPLILESPSPNQTSLYFCASSPGTIGELFFGEGSRLTVL
B7: nwTCR-2915 (TCR, V domains shown)
Valpha: GESVGLHLPTLSVQEGDNSIINCAYSNSASDYFIWYKQESGKGPQFIIDIRSNMDKRQGQRVTVLLNKTVKHLSLQIAATQPGDSAVYFCAESYGQKLLFARGTMLKVDL
Vbeta: EAQVTQNPRYLITVTGKKLTVTCSQNMNHEYMSWYRQDPGLGLRQIYYSMNVEVTDKGDVPEGYKVSRKEKRNFPLILESPSPNQTSLYFCASSFWSAGELFFGEGSRLTVL
B8: nwTCR-3028 (TCR, V domains shown)
Valpha: SQQGEEDPQALSIQEGENATMNCSYKTSINNLQWYRQNSGRGLVHLILIRSNEREKHSGRLRVTLDTSKKSSSLLITASRAADTASYFCATDVKSSYKLIFGSGTRLLVRP
Vbeta: AAGVIQSPRHLIKEKRETATLKCYPIPRHDTVYWYQQGPGQDPQFLISFYEKMQSDKGSIPDRFSAQQFSDYHSELNMSSLELGDSALYFCASSLGLLGNEQFFGPGTRLTVL
B9: nwTCR-3271 (TCR, V domains shown)
Valpha: DQQVKQNSPSLSVQEGRISILNCDYTNSMFDYFLWYKKYPAEGPTFLISISSIKDKNEDGRFTVFLNKSAKHLSLHIVPSQPGDSAVYFCAAKPDKLIFGTGTRLQVFP
Vbeta: SAVISQKPSRDICQRGTSLTIQCQVDSQVTMMFWYRQQPGQSLTLIATANQGSEATYESGFVIDKFPISRPNLTFSTLTVSNMSPEDSSIYLCSVWGAGLAIYNEQFFGPGTRLTVL
B10: nwTCR-2916 (TCR, V domains shown)
Valpha: GQQLNQSPQSMFIQEGEDVSMNCTSSSIFNTWLWYKQDPGEGPVLLIALYKAGELTSNGRLTAQFGITRKDSFLNISASIPSDVGIYFCAGQDDGGSQGNLIFGKGTKLSVKP
Vbeta: DSGVTQTPKHLITATGQRVTLRCSPRSGDLSVYWYQQSLDQGLQFLIQYYNGEERAKGNILERFSAQQFPDLHSELNLSSLELGDSALYFCASSPWTSGGDGELFFGEGSRLTVL
B11: nwTCR-3274 (TCR, V domains shown)
Valpha: QKEVEQNSGPLSVPEGAIASLNCTYSDRGSQSFFWYRQYSGKSPELIMSIYSNGDKEDGRFTAQLNKASQYVSLLIRDSQPSDSATYLCAVVSGGYNKLIFGAGTRLAVHP
Vbeta: EPEVTQTPSHQVTQMGQEVILRCVPISNHLYFYWYRQILGQKVEFLVSFYNNEISEKSEIFDDQFSVERPDGSNFTLKIRSTKLEDSAMYFCASSEGWGGTEAFFGQGTRLTVV
B12: nwTCR-3125 (TCR, V domains shown)
Valpha: QKEVEQNSGPLSVPEGAIASLNCTYSDRVSQSFFWYRQYSGKSPELIMSIYSNGDKEDGRFTAQLNKASQYVSLLIRDSQPSDSATYLCALVSGTYKYIFGTGTRLKVLA
Vbeta: DTAVSQTPKYLVTQMGNDKSIKCEQNLGHDTMYWYKQDSKKFLKIMFSYNNKELIINETVPNRFSPKSPDKAHLNLHINSLELGDSAVYFCASSPGLAYEQYFGPGTRLTVT

Molecular target: T1, PRAME peptide on HLA-A*02:01
Test: multimer staining

Binding result, recognises:
B1
B2
B3
B4
B5
B6
B7
B8
B9
B10
B11
B12
